How the values were obtained:
[1] = target: T1, CD40 (Homo sapiens, UniProt P25942); settings: human monocyte-derived DC cultures; cited from earlier work
T1 construct: validated in vitro in human monocyte-derived DC cultures; endogenous in cells; host or cells: human monocyte-derived dendritic cells

[2] = OPTIMIZE-1 safety and tolerability (AEs, DLTs, RP2D; CTCAE v5.0); format: in vivo
Procedure: Two dose levels, 450 μg/kg and 900 μg/kg, of mitazalimab were planned to be administered in combination with mFOLFIRINOX in Part 1. During the first treatment cycle (the first 21 days) for each patient, mitazalimab was administered on Day 1 and Day 10 and mFOLFIRINOX infusion started on Day 8. During the following 14-day treatment cycles, mFOLFIRINOX was administered on Day 1 and mitazalimab on Day 3 of each cycle, see FIG. 3. In case the number of DLTs for a dose level fulfilled the stop criteria, see Table 3 Escalation rules based on number of patients with DLTs, at the lowest dose level of mitazalimab, the chemotherapy mFOLFIRINOX could be exchanged to the chemotherapy gemcitabine plus nab-paclitaxel, as illustrated in FIG. 2. If changing the chemotherapy from mFOLFIRINOX to gemcitabine plus nab-paclitaxel, see dosage schedule in Example 5.
The dose escalation in Part 1 follows a BOIN design with at least 3 evaluable patients per dose level. According to the BOIN design, each time a cohort of patients has been completed, a decision is made whether the next cohort should remain on the same dose, escalate to the next higher dose level or de-escalate to the next lower dose level, according to the decision rules presented in Table 3 below. A range of 3-9 patients was included at each dose level. In this study, the de-escalation from 450 μg/kg mitazalimab in combination with mFOLFIRINOX was a change of chemotherapy to gemcitabine plus nab-paclitaxel as previously described.
Mitazalimab in combination with mFOLFIRINOX: The DLT evaluation period is defined as the time from the first dose of mitazalimab (Day 1) until Day 21 in the first treatment cycle (Cycle 1). Mitazalimab in combination with gemcitabine plus nab-paclitaxel: The DLT evaluation period is defined as the time from the first dose of mitazalimab (Day 1) until Day 28 within the first treatment cycle of 35 days (Cycle 1). This period enabled the DRC to evaluate for early safety of mitazalimab together with the chemotherapy combination.
The same DLT criteria applied for mitazalimab in combination with mFOLFIRINOX and gemcitabine plus nab-paclitaxel. A DLT was considered related to study treatment unless there is a clear, well-documented, alternative explanation for the adverse event (AE). AEs that meet the above criteria but occur after the DLT evaluation period were not defined as DLTs, unless the onset of the event was during the DLT evaluation period. The event could be reported as AEs/Serious adverse events (SAEs), as applicable.
Number or patients experiencing AEs and number of events were summarized by SOC and preferred term. In addition, the following AEs were presented: • Incidence of DLT (Part 1); • AEs Grade 3 or higher; • Serious AEs; • AEs leading to discontinuation of study treatment; and • AEs leading to death.
The safety set comprised all patients that received any study treatment (mitazalimab) and was used for all endpoints related to the safety objectives.
The objective of the first (Phase 1b) part of the study was to determine the RP2D of mitazalimab+mFOLFIRINOX. Mitazalimab was escalated from 450 μg/kg to 900 μg/kg following a Bayesian optimal interval design with at least 3 patients enrolled per dose level. In the first 21-day treatment cycle (Dose Limiting Toxicity assessment period), mitazalimab was administered intravenously on days 1 and 10 and mFOLFIRINOX starts on day 8. In the second and subsequent cycles, treatment followed a 14-day cycle schedule where mitazalimab was administered 2 days after mFOLFIRINOX.

[3] = test system: tumour associated macrophages (TAMs); settings: TAMs from human prostate and ovarian tumour samples; cited from earlier work

T1 sequence (P25942 21-277): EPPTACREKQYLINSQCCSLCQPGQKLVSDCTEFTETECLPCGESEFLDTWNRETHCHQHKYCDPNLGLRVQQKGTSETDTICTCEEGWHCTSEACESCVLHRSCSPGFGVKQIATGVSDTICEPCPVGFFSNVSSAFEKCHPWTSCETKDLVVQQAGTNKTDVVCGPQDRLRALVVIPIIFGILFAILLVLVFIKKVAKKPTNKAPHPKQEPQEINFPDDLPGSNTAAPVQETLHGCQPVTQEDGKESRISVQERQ

B1: Mitazalimab: agonistic, human monoclonal (IgG1) antibody targeting CD40 (antibody, chains of the INN, looked up, V domains shown)
VH: EVQLLESGGGLVQPGGSLRLSCAASGFTFSTYGMHWVRQAPGKGLEWLSYISGGSSYIFYADSVRGRFTISRDNSENALYLQMNSLRAEDTAVYYCARILRGGSGMDLWGQGTLVTVSS
VL: QSVLTQPPSASGTPGQRVTISCTGSSSNIGAGYNVYWYQQLPGTAPKLLIYGNINRPSGVPDRFSGSKSGTSASLAISGLRSEDEADYYCAAWDKSISGLVFGGGTKLTVL
activation markers (CD80, CD86) on DCs and release of IL-12 [1]: up-regulation of activation markers on the surface of DCs
AESIs ([2]; in vivo): None
DLTs ([2]; in vivo): G3 Headache
DLTs, % ([2]; in vivo): (9.1) %
Discontinued treatment: Unacceptable toxicity, percentage of patients ([2]; in vivo): (11.6) %
Discontinued treatment: Unacceptable toxicity, percentage relative to number discontinued ([2]; in vivo): 15.4%
Grade 1 or 2 TEAEs, % ([2]; in vivo): 81.8%
Grade 3 TEAEs, % ([2]; in vivo): 36.4%
Mitazalimab Related Adverse Events: Grade 1 or 2 TEAEs, % ([2]; in vivo): (72.7) %
Mitazalimab Related Adverse Events: Grade 3 TEAEs, % ([2]; in vivo): (9.1) %
Mitazalimab Related Adverse Events: patients with any TEAEs, % ([2]; in vivo): (72.7) %
Mitazalimab-related Grade 1-2 Fatigue ([2]; in vivo): 3
Mitazalimab-related Grade 1-2 Fever or similar ([2]; in vivo): 6
Mitazalimab-related Grade 3 Fatigue ([2]; in vivo): 2
Mitazalimab-related Grade 3 Headache ([2]; in vivo): 1
Mitazalimab-related Grade 3 Hypokalemia ([2]; in vivo): 1
Patients with any TEAEs, % ([2]; in vivo): 81.8%
Mitazalimab-related Grade 1-2 Flu/muscle ache ([2]; of 11 patients at 2 dose levels): 5
polarization of TAMs (upregulation of e.g. CD83) [3]: from a more immune-suppressive phenotype into a more immune-inflammatory phenotype

Source: patent US20260055200A1, “COMBINATION THERAPIES” (Alligator Bioscience AB, priority 2022, published 2026)
